T1: human B7-H3 (Y-Biologics Inc.) (human, UniProt Q5ZPR3 29-466)
T1 chain: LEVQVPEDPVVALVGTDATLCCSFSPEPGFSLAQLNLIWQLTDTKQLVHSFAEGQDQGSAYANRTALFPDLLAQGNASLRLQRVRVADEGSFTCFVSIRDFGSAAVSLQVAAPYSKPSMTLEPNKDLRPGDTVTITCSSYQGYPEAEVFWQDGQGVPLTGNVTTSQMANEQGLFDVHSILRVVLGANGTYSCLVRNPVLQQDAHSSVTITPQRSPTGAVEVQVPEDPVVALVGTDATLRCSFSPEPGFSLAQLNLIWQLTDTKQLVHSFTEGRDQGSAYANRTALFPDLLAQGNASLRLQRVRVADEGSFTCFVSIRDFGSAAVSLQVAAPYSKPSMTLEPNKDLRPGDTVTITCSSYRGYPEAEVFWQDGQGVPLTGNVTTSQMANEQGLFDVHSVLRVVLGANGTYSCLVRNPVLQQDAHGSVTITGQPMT

T2: Human 4IgB7-H3 (Y-Biologics Inc.) (human, UniProt Q5ZPR3 29-466, limits assumed)
T2 construct: 4Ig isoform
T2 sequence (looked up): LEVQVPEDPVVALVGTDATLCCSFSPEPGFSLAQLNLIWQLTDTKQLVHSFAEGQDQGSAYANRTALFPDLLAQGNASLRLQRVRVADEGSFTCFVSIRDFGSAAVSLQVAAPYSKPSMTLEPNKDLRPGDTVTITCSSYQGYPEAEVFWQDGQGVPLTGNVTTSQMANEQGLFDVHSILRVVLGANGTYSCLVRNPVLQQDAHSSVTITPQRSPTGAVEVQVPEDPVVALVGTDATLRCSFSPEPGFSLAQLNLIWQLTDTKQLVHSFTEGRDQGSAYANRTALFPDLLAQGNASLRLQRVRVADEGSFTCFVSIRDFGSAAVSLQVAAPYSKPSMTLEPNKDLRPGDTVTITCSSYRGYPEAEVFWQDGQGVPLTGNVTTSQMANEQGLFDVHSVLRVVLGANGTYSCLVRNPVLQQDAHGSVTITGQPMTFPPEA

T3: Human 2IgB7-H3 (Acrobiosystems) (human, UniProt Q5ZPR3-2 29-245, limits assumed)
T3 construct: 2Ig isoform (the short splice form of the same UniProt entry)
T3 sequence (looked up): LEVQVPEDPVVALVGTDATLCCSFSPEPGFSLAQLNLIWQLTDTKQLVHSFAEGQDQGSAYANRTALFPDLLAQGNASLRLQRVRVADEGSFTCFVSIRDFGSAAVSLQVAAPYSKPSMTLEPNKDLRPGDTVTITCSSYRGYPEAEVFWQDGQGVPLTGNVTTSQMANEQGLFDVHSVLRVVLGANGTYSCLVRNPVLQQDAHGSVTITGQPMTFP

T4: Mouse B7-H3 (Sino biological Inc.) (mouse, UniProt Q8VE98 29-244, limits assumed)
T4 sequence (looked up): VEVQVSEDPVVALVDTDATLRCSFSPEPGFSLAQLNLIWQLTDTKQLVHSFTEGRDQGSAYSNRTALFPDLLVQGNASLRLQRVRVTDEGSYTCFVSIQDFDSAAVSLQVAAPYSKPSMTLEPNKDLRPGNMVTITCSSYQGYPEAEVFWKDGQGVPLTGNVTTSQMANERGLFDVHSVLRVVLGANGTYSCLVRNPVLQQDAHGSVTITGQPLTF


Columns and labels:
[1] = molecular target: T1, human B7-H3 (Y-Biologics Inc.); test: BLI (Octet QKe), antibody on AHC biosensor, human B7-H3 as analyte, 1:1 global fit
[2] = molecular target: T5, Cyno B7-H3 (Sino biological Inc.) (cynomolgus monkey); test: SPR (Biacore 8K), antibody captured on anti-human Fc, antigen as analyte, 1:1 fit
T5 construct: also called cynomolgus monkey B7-H3
Method: (§1) A Biacore 8K (GE Life science) instrument was used to measure the binding kinetics about several B7-H3 variants (analyte) binding to various mAbs (ligands). Antibodies were captured onto the immobilized anti-human Fc antibody (GE Life science). […] For binding kinetic measurements, the HBS-EP+ was used for running buffer (10 mM Hepes, pH7.4, 150 mM NaCl, 3 mM EDTA, 0.05% polysorbate20). […] After capturing ligand, various B7-H3 antigens were analyzed for 120 s and the dissociation was monitored for 600 s at a flow rate of 30 ul/min. […] For the kinetic analysis, 5 points of 2-fold diluted analytes were flown over the captured ligand ranging from 20 nM of human 4Ig B7-H3 (Y-Biologics Inc.), 320 nM of human 2Ig B7-H3 (Acrobiosystems), 40 nM of cynomolgus monkey B7-H3 (Sino biological Inc.), and 160 nM of mouse B7-H3 (Sino biological Inc.). Kinetic information was calculated by fitting data to a 1:1 binding model using Biacore Insight Evaluation software (GE Life Science) to determine ka (association constant), kd (dissociation constant), and KD (equilibrium dissociation constant).

[3] = molecular target: T2, Human 4IgB7-H3 (Y-Biologics Inc.); test: as above
Method: as §1

[4] = molecular target: T3, Human 2IgB7-H3 (Acrobiosystems); test: as above
Method: as §1

[5] = molecular target: T4, Mouse B7-H3 (Sino biological Inc.); test: as above
Method: as §1

Binder | Kd [1] [pM] | koff [1] [s⁻¹] | kon [1] [M⁻¹ s⁻¹] | Kd [2] [pM] | koff [2] [s⁻¹] | kon [2] [M⁻¹ s⁻¹] | Kd [3] [pM] | koff [3] [s⁻¹] | kon [3] [M⁻¹ s⁻¹] | Kd [4] [pM] | koff [4] [s⁻¹] | kon [4] [M⁻¹ s⁻¹] | Kd [5] [pM] | koff [5] [s⁻¹] | kon [5] [M⁻¹ s⁻¹]
AB2 (SA2107, CD276-040F10) (antibody, human IgG1, V domains shown, Whole human IgG) VH: QVQLVESGAEVKKPGASVKLSCKASGYTFSSYWMHWVRQAPGQRLEWMGEINPGNGHTNYNEKFKSRVTITVDKSASTAYMELSSLRSEDTAVYYCVADPRRPKVPTALFVYWGQGTLVTVSS VL: DIQMTQSPSSVSASVGDRVTISCRASQGIGTWLAWYQQKPGKAPRLLIYAASSLDSGVPSRFSASGSGTDFTLTISSLQPEDFATYYCQQAINFPITFGQGTRLEIK | 50 | 4e-05 | 700000 | 919 | 0.000442 | 481000 | 446 | 0.000199 | 446000 | 25000 | 0.00515 | 206000 | 47300 | 0.0193 | 408000
AB2.1 (SA2107.01, CD276-040F10_IgG1_A1C) (antibody, V domains shown, Tested unconjugated; also called SA2107 A121C) VH: QVQLVESGAEVKKPGASVKLSCKASGYTFSSYWMHWVRQAPGQRLEWMGEINPGNGHTNYNEKFKSRVTITVDKSASTAYMELSSLRSEDTAVYYCVADPRRPKVPTALFVYWGQGTLVTVSS VL: DIQMTQSPSSVSASVGDRVTISCRASQGIGTWLAWYQQKPGKAPRLLIYAASSLDSGVPSRFSASGSGTDFTLTISSLQPEDFATYYCQQAINFPITFGQGTRLEIKR | 50 | 2e-05 | 500000 | 1050 | 0.000504 | 480000 | 1060 | 0.00047 | 442000 | 21600 | 0.00469 | 217000 | 42400 | 0.0178 | 420000
AB3 (SA2103, CD276-039C05) (antibody, human IgG1, V domains shown, Whole human IgG) VH: QVQLVESGAEVKKPGSSVKVSCKASGGTFSSYAISWVRQAPGQGLEWMGRIIPILGIANYAQKFQGRVTITADKSTSTAYMELSSLRSEDTAVYYCANGGDSSSWYTFDYWGQGTLITVSS VL: DIQMTQSPSTLSASVGDKLTLTCRASQSISRWLAWYQQKPGKAPKLLIYKASYLQTGVPSRFSGSGTGTEFTLTISSLQPDDFATYYCQQYNTFPLTFAGGTKVEIK | 40 | 3e-05 | 600000 |  |  |  |  |  |  |  |  |  |  |  | 
AB4 (SA2545, CD276-039C05_LS_001E10) (antibody, human IgG1, V domains shown, Whole human IgG; also called CD276-39C05-LS-001E10) VH: QVQLVESGAEVKKPGSSVKVSCKASGGTFSSYAISWVRQAPGQGLEWMGRIIPILGIANYAQKFQGRVTITADKSTSTAYMELSSLRSEDTAVYYCANGGDSSSWYTFDYWGQGTLITVSS VL: DIQMTQSPSTLSASVGDRVNITCRASQTINSWLAWYQQKPGKAPKLLIYKASYLQTGVPSRFSGSGAGTEFTLTISSLQPDDFATYYCQQYNSYSLTFGGGTKVEIK | 60 | 7e-05 | 1e+06 |  |  |  |  |  |  |  |  |  |  |  | 

Now from value to binder:

Kd [1] [pM] | koff [1] [s⁻¹] | kon [1] [M⁻¹ s⁻¹] | Kd [2] [pM] | koff [2] [s⁻¹] | kon [2] [M⁻¹ s⁻¹] | Kd [3] [pM] | koff [3] [s⁻¹] | kon [3] [M⁻¹ s⁻¹] | Kd [4] [pM] | koff [4] [s⁻¹] | kon [4] [M⁻¹ s⁻¹] | Kd [5] [pM] | koff [5] [s⁻¹] | kon [5] [M⁻¹ s⁻¹] | Binder
100 | 0.0002 | 1e+06 |  |  |  |  |  |  |  |  |  |  |  |  | AB5 (SA2563, CD276-039C05_LS_002A11) (antibody, human IgG1, V domains shown, Whole human IgG; also called CD276-39C05_LS_002A11) VH: QVQLVESGAEVKKPGSSVKVSCKASGGTFSSYAISWVRQAPGQGLEWMGRIIPILGIANYAQKFQGRVTITADKSTSTAYMELSSLRSEDTAVYYCANGGDSSSWYTFDYWGQGTLITVSS VL: DIQMTQSPSTLSASVGDRLTITCRASQNINSWLAWYQQKPGKAPKLLIYKASYLQTGVPSRFSGSGSGTEFTLTITSLQPDDFASYYCQQYDSNPLTFGGGTKVEIK
300 | 0.0003 | 900000 |  |  |  |  |  |  |  |  |  |  |  |  | AB8 (SA2579, CD276-039C05_LS_002H07) (antibody, human IgG1, V domains shown, Whole human IgG; also called CD276-39C05-LS-002H07) VH: QVQLVESGAEVKKPGSSVKVSCKASGGTFSSYAISWVRQAPGQGLEWMGRIIPILGIANYAQKFQGRVTITADKSTSTAYMELSSLRSEDTAVYYCANGGDSSSWYTFDYWGQGTLITVSS VL: DIQMTQSPSTLSASVGDRVTITCRASQSIDNWLAWYQQKPGKAPKLLIYKASSLQSGVPSRFSGSGSGTEFTLTISSLQPDDFASYYCQQYDSNPLTFGGGTKVEIK
300 | 0.0005 | 2e+06 |  |  |  |  |  |  |  |  |  |  |  |  | AB7 (SA2571, CD276-039C05_LS_002D03) (antibody, human IgG1, V domains shown, Whole human IgG; also called CD276-39C05_LS_002D03) VH: QVQLVESGAEVKKPGSSVKVSCKASGGTFSSYAISWVRQAPGQGLEWMGRIIPILGIANYAQKFQGRVTITADKSTSTAYMELSSLRSEDTAVYYCANGGDSSSWYTFDYWGQGTLITVSS VL: DIQMTQSPSTLSASVGDRVTITCRASETISSWLAWYQQKPGKAPKLLIYKASSLQSGVPSRFSGSGSGTEFTLTISSLQPDDFATYYCQQYYSYPITFGQGTRLEIK
200 | 0.0006 | 3e+06 |  |  |  |  |  |  |  |  |  |  |  |  | AB6 (SA2566, CD276-039C05_LS_002B07) (antibody, human IgG1, V domains shown, Whole human IgG; also called CD276-39C05-LS-002B07) VH: QVQLVESGAEVKKPGSSVKVSCKASGGTFSSYAISWVRQAPGQGLEWMGRIIPILGIANYAQKFQGRVTITADKSTSTAYMELSSLRSEDTAVYYCANGGDSSSWYTFDYWGQGTLITVSS VL: DIQMTQSPSSLSASVGDRVTITCRASQGISSYLAWYQQKPGKAPKLLIYAASTLQSGVPSRFSGSGSGTDFTLTISSLQPEDFATYYCQQYYSFPLTFGGGTKVEIK
300 | 0.0002 | 500000 | 278 | 0.000242 | 871000 | 518 | 0.000617 | 1.19e+06 | 208000 | 0.107 | 515000 | 49000 | 0.0294 | 600000 | AB9 (SC0041, CD276-m8524), control anti-B7-H3 antibody (antibody, human IgG1, V domains shown, Control antibody produced by the applicants; Human IgG1, Kappa-T2S) VH: QVQLQQSGAEVKKPGSSVKVSCKASGGTFSSYAISWVRQAPGQGLEWMGGIIPILGIANYAQKFQGRVTITADESTSTAYMELSSLRSEDTAVYYCARGGSGSYHMDVWGKGTTVTVSS VL: EIVLTQSPATLSLSPGERATLSCRASQSVSSYLAWYQQKPGQAPRLLIYDASNRATGIPARFSGSGSGTDFTLTISSLEPEDFAVYYCQQRSNWPPRITFGQGTRLEIKR

Reference: patent publication US20250121087A1 (INTOCELL, published 2025)
